Earlier results on one substance are cited in paper PMC3131494.

In the series the target is eNOS (UniProt P29474).

pKd: −log10 of the molar value.

UniProt P29474, sequence (P29474 2-1203): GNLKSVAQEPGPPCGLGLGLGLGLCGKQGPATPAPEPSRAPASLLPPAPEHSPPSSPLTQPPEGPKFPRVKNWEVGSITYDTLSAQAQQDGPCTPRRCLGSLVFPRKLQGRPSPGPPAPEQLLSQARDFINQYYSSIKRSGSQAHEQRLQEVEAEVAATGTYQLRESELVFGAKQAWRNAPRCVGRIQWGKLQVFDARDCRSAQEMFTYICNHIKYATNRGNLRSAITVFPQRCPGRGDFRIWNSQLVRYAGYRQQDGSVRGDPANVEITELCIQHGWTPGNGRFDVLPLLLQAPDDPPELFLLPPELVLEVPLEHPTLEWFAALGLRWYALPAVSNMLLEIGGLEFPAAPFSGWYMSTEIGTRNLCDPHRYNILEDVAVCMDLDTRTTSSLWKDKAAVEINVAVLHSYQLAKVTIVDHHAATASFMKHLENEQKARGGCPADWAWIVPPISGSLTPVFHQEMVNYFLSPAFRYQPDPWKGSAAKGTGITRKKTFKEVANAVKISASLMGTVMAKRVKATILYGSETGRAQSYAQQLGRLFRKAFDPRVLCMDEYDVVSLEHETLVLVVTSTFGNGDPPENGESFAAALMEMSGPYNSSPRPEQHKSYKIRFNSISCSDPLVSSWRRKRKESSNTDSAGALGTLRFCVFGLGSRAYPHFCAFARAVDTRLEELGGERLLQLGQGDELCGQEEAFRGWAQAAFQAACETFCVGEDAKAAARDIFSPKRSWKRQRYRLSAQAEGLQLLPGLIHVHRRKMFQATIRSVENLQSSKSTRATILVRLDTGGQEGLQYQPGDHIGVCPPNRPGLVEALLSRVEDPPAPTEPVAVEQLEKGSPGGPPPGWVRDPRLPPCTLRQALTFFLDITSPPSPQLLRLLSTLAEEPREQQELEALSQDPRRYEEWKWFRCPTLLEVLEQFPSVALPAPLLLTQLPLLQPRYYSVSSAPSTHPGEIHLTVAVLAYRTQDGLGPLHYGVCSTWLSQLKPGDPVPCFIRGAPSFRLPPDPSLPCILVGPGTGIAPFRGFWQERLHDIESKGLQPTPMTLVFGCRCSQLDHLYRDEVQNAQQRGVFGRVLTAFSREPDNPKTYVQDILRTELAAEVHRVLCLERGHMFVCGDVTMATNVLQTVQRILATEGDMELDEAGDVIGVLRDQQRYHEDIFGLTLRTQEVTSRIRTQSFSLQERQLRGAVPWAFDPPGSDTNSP

Turning to dynamin (from UniProt P50570), the pKd was 7.52.
